Results from the DeepSol protein solubility set.

Test: soluble on expression in E. coli; label from the status in PepcDB or PDB records

| Sequence | soluble on expression in E. coli |
| --- | --- |
| MGSDKIHHHHHHMGGNRFGQSPVTGGAGVNAVAKRACLDDVQIAFGQGHRVHVARADTAPDLTRAFAQPIHLCTPICPPRTLTTTRHMDNPHGRAIVHAMEQLDADILIVGGGLNGPCLALACAQAGLSSVVLDALPAQTREETGFDGRAYALALASVRMLDALGIWNQVEDHAQPMLEIKASDGRAGEGAAPFFLHFDHAEIEEGPMGHMLEDRYLRRALMAAMEASSLVAHRAASRVLSQDTNGMASVTLDGGEVLRGRLLIGADGKRSGVAERAGIRRMGWDYNQTALVCAVDHDRPHNGIAHQFFMPGGPLAILPLPGNRSSIVWSESEPRASELAAADDDTFMDALRPAFGDFLGNISLTGQRHSYPLSLSLAQAFVAEKLALVGDAAHGVHPIAGQGLNLGLRDVSALAETLADAKRRGEDFARRDVLDRYQQWRRFDTAGLAVATDSVNRLFSNDNPAVRAIRDIGMGAIGALPTLRRRFIREAAGLTGDLPRLMQGRTL | not soluble |
| MGSDKIHHHHHHMGKARRGLQRGNGVHRHEAVRMFISLREIAPQGGLGPPRQLAGRRIAHVLDQAFRVALEVSARCHAVRVAHRVKSFVCTQQSRFVMGRQRLASMAHLRQNPPMAKLYFNYSTMNAGKSTLLLQASYNYIERGMQTYLLTANFDDRAGMGRIGSRIGIEAEADTYTQSDDLFAKIDARLKAGPCACVLVDEAQWMTRDQVWQLARAVDDLGVPVMCYGLRVDFRGELFPGSAALLALADEMREVRTICHCGRKATMVIRVGEDGNALAEGAQIEVGGNDRYISLCRKHFREAVGDVPV | not soluble |
| MGSDKIHHHHHHMGLLLKTAASPFACSSGMQNFIANPELESYLRLNRAACGEWTLALQDLLGCSGLACDLSRPKEEVGSLSALGVGGGLVAALSVRQGLELQHCRLESVLLVFPVQGHCELLSDGAAANTLLPFQLILPGQTFSLRVTAESRLLLLMPAEQPQAVQLAAATSEAITLSIQRFLYQAGFLQDHHQGCQAAETVLREVREILAGSSGVTKVTEAVPEPDRRLLKAISKIRTEPDWPFDLQELSSHAGVSERNLYYLMKRQTGMTPYRYYQRCRLIRVRRRLVDCQCAVPHISRYAGDEGFSHFGRFAALYREHFGELPSETVQWRRRLQAQELLAPALS | not soluble |
| MGSDKIHHHHHHMGRRLRVEYLGAMYHVVQRGNNREFIFGRPDERDYLIEQVGNAVKVDGVTVFAYVVMSNHYHLLLRTDGEFLSKVMHRVNTRYSRFFNCDSGRDRTGVVFEGRYKAILVQNDDYLLSLVRYIHRNPLRAGIVSRFCDYRWSSDACYRQQGNGPGGGDFVNCDLILRMFSDKKQIALREYKRFMENDDGKDWENIPCIGDDSFAQLAEPRKEKAGRVSLDEILINTGVDNEEFQLIKQGSRKRLLQKYKIAFTGEAIGQGYTMREIGQHIKLSHVAISHLFNSKQDSK | not soluble |
| MGSDKIHHHHHHMGRRSHSRSLSIWTNGVRVGRWTVPARGEMELQYDVDWVRADVGRPLSLSLPFNLQNLPLKGERVANYFDNLLPDSDAIRRRVAERFRTGSVDPFDLLKAIGRDCVGAVQILEDEEIPEGFDRIEGVPLSEEDIERHLIETVTPRAFAAGRDPDADFRISLAGAQEKTAFLWWGGQWLAPRGATSTSHIFKLPLGLVGGRRADFSTSVDNEWLCLKLLKAYGLDVAEASIATFGQQRVLVVERFDRRVAPNGQWLMRLPQEDFCQVEGCSPLRKYENEGGPGLKALFATLRQSVNAAVDMRTLMAAQILFWLLRAPDGHAKNFSIQLLPRGRFQLTRLYDVMSAYPVLGDGANQWSPFEIKLAMALIGKNRHYEMHGIQRRHFNSTAQKVGYGPTAEPIIEDLLARTPAIIAAVQADLPQDFSPRVADSVLGGLAQAAKSLGAMMP | not soluble |
| MGSDKIHHHHHHMGSETEYGIHAPSAPGANATMMSARVIQAYAQLTRQRAAGGAETRWDYTDEEPLHDARGWTLERNQADPSQLTDQPPVLDAEAVALAYGREELEQDGEDETGSLLMNMVLGNGARLYVDHAHPEYSSPEVTNPLDAVAWDAAGDLVALSAVRRMAADPQLPPVNLYKNNTDNKSVSYGSHENYLMPRAVPFGDIVRGLTPFFITRQIMCGAGRVGLGQDSSRPGYQISQRADFFEAEVGLETTIRRPIINTRDEPHATADKYRRLHVIIGDANLSQAANYLKFGTTAMVLSLIEAGLAPRVEVHEPVAALQAVSHDTSLTATLRLLDGRRVTALDLQWMYHEAAAKLAQDTGVGDSVDGDGHTHALLERWAATLTDLDSDRTAAASSVEWLAKLSLLEGYRQRDGLQWNDARLGLVDLQWADVRPEKGLYYRMLARGRMDRIVADETIARAMTEPPSDTRAYFRGRCVSSFSKDVVGASWDSVIFDVPGHGRLQRVPTREPLRGTEALTGGLFARHKDTGSFLAELLGQTPPPPPA | not soluble |
| MGSDKIHHHHHHMGVEHMRGFSNEIILKRTLTLSDFTLRYHKRGITALQVIKAPSVSNVPVLLSGDNYGYFVMWDLVTKRPITHIEIEGNSHIIAFWWVETTNVLYILSKDSMLRIFELDSSTQLSIDLVRKLSQANKTDHLQWTKIYEMPINTLNFANFIIEAEVKPTKDNKSYRLVCCHTDDSETIDIYQIIEDSTFKLKRPFNNINFPRFLKQQNFLGISKDSKFGIIMRFAKLNDVIFLGYENGFVVGFKITFDEGLQRDIAELVHVSNDHYPNPILDMCVSGDELYSCSTDDFITKYKIPVNLQLETKYLRDDALLIKCPSSLRVSEPSKVHLPLKNIGHIDKVKDDYLVVSSWSGMTIVYNMRTSEVEQTFVKSKNNLVVSDSSMGDLTNGSGSNTESSSKSHNYKVGAMTCLESFDVQSDGLRLGQLRRIKALAKCNWCLIGYEDGTIKLNKI | not soluble |
| MGSDKIHHHHHHMHAWESIQITLDLIEANLSEEISINELANKANLSPFYYQRLFKRLVNKTVMEYIKLRRLARASEYLAEHKNRILDVALNFGFASHETFTRSFKKAYGLTPEKYRANPVKLNHFIKPELILNYAMVDEGVPLIADDIVIEVNRKTLSNPRTFVGIEIEVPICQLVGGETTGIAIVEELWMKLGSQRHNIPNQIPGGNEFAALYMGNAKEGNCMYMAGVEVESGTSVEGYSTFELPVKEYLVCGFEAENFNELVNSAVFKADKFMERWMKKHNLTTTDFAIEMYYPTTPEAAYLEHWIVPVPIEQ | not soluble |
| MGSDKIHHHHHHMHFLEKYRFLVIGHRGLPSLCLENTVESFNATFNAGMPAVELDVQYTADGVPVVFHDFDLNRLAGRNSRIGDLKWDDLSKIRLASGSTIPRLSDVLSAFENFNFFIEIKIEKFDNAERKLTDDVARMVIDRSMNDNVVMISFNASAMRYVRDHYDGIITGLDFESPDEADDAVNNNVALPYYAIIDEVFDKIKERPVIPWTVDSYSTAVRLKEMGCRGIITNTGDRFISLIE | not soluble |
| MGSDKIHHHHHHMHLDNEADHHSENKAEAPGIQPAVTRNVADISPQIAQCAVEWLVELQAADHDEATHEAFQRWLAAHPDHKLAWQHIETVNTRFNGLTSPLGSAVAKAVLTPRRSLKRRQIIKTLVVILFAGSTGWWADEKIPWRAWTADERTHIGQRRNITLADGSRVVLNTDTAINIRFTANERRLQLVRGEILVTTNQDSASIVRPFIVEIAQSELRPLGTRFTIHQQTTSNRLSVFEGAVEIRLRQDINYRHIVQAGEQVDFSNQGIHEIHPADDTSTAWSNGMIIASSMRLADFLAELDRHRPGKLNCDPAVADLRVSGTYPLTDPEDILDALQTTLPVKIQYFTRYWVTVRPAS | not soluble |
| MGSDKIHHHHHHMHPALWISKTGLDAQQTDISVISNNVANASTIGYKKSRAVFEDLLYQTVNQAGGISADNTKLPNGLNIGAGTKVVATQKMFSQGNMLTTDNSLDLMIEGPGFFEVQLPDGTPAYTRNGQFSLDDTGQIVTPGSGYVLQPAITIPENATGITVSAGGEVSVKIPGTAESQVIGQITMTDFINPSGLDPLGQNLYTETGASGTPIQGTASLDGLGAIRQGALETSNVNVTEELVNLIQSQRIYEMNSKVISAVDQMLAYINQNL | not soluble |
| MGSDKIHHHHHHMHSHHPISHDVVISGAGPVGLFLACELRLAGLSVLILEKAEDPRSPLKRLPFGMRGLSAPTIEAFHRRDLLDAIAPPTTKDGSGKLVAAHWMQQPRRPGGHFAGIQFHLDAVDSSKWPYRLPGPAGTSMAVEMEQLETMLATRATAMGVEIRRGLGVEIFDQSDEDVTIRAGGEIFRARWLVGCDGGRSTVRKLGGFAFTGTDAEFTGYSVEVEIADPDALSPGRHYTPTGMYTYSRPGTIAMVEFDGATFHRTEPITLEHVQAVLRRVSGTDVTLTALRLATTWTDRAYQASAYRNGRVLLAGDAAHIHSPLGGQGLNLGIGDAMNLGWKLAATIRGDAPAGLLDSYFDERHPVGAQILDWSRAQVALMRPSRSSRALEAIIRDLIDTRDGATYFAERVWGVSLRYDVGGSHPLVGRSAPDFELADGTRPGERLRTGQALLLDFAARPALQALASRWSGRIAYVAEDARERLGLSALLVRPDGVVAWAADGEPDLEGAAQAASRWFGEPGQVAAYAKGTV | not soluble |
| MGSDKIHHHHHHMHVVELRFECFDNTTITAAERAINGLLEAYRANGQVLGREFAVAFNEGEFRVRLLLPEKSSLAKRFNSPWVNYALEELTQAKLLHPREKYIGQDINSEVSSTETPSWQLLYTSYVHMCSPLRNGDTLQPIPLYQIPATFNGDHKRVIKWQTEWQACDELQMAAATKAEFAALDELSQCDSDLFRRGWDLRGRIEYLTKIPTYYYLYRVGGESLAAEQQRPCPRCGNTHWLLETPLLDLFHFRCDNCRIVSNISWDHL | not soluble |
| MGSDKIHHHHHHMIAAIDIGTESARLMFKSNGEWKVLKKSYRIFFPSPEAAEQDPNEIFSAVFDLLKQVPNEDEVLYVGMSSVFHSIIGLDENLNPVTPLLNWADRRSFREKEELEKKYGVRFFYEKTACPLHPMYWPSKILWMKKNSNAKKFCSIKAYIVNKMTREFVEELSLASGTGMMNIHSLEWDGEILEITGVRKEDLPEIKSPYTQLRVKDEIAKELGFKKVYLVLGGGDGVMTNVGVNVMDPDSATVTIGTSGAFRVVMDRPVIDREGISTWCYLIDEENYVLGGAINNGGIVLMWLRDIMKFKDYNDIIEEAKESPAGANGLVFLPFLNGERAPHWRERYRGVLVGLTSSHRRSDIARAALEGICFRIKDIHNAVKRVGSVDPNRIVATGGFTSSPYWVQLLSDVLGKDIIVTNVENPSAFGAYVMALKSLGEDVEGFIEKEVRVERVFHPDSERNAVYERLYNDYKFLYEKLVDYYYKE | not soluble |
| MGSDKIHHHHHHMIAEPFLFRSEGGFIRIPIWGHIPLSAPLKKILAHPSFLRLKGIRQLSFAQQVYPGANHTRFEHSIGVYHLMKMILQRMVSNPLALELQDERLQFDDETCRTLLATCLLHDIGHYPHAHVLEEITPAGDSSAVFAHHESLTGQFLNEEHRDTPSIAAILHDDWQVNPDTVTEIIAGKTAHRLGKLVSGTLDPDKMDYLMRDAHHCNIPYGSIDIERLIESFVPDPERQRLAITEKGIAPLESLLFAKYMMMRNVYWHHTSRTFSTMLRRLLQDVADESALPMETLRELFYFNSDDRVLFELERAIRGLGLPAAELLDAILERRVYKRAMTIRPYHEPSMEIDPVWFAYNTSHRRRKEKELEICAMLAGKTGKRLAGHEVLIDAPPSKDVFDYSDFRELRIWPTKSEHRHLVQPTDSNGYVRFDDFRESVFGSDFILSFEQYTKKFRLLCRHDLVDTLSGLEEAVVEILRR | not soluble |
| MGSDKIHHHHHHMIAIEEIGRITPDNLGLVTVLAGEDLGQYAQMKEKLFQVIGFNKDDLAYSYFDLSEEDYQNAELDLESLPFLSDYKVVIFDQFQDITTDKKTYLDEQAMKRFEAYLQNPVDTTRLVICAPGKLDGKRRLVKLLKRDARVLEANTLKESDLKTYFQKYAHQEGLVFEAGVFDELLIKSNYDFSDTLTNIAFLKSYKTDGHISSNDVREAIPKSLQDNIFDLTQDVLLGRIDLARDLVRDLRLQGEDEIKLIAIMLGQFRMFLQVKILASKGKSESQIVSELSHYIGRKINPYQVKFAVRDSRNLPLAFLKEAIRILIETDYAIKRGTYDKDYLFDLALLKIAHKKP | not soluble |
